From patent publication US20250066503A1, “CELL INJURY INDUCING THERAPEUTIC DRUG FOR USE IN CANCER THERAPY” (CHUGAI SEIYAKU KABUSHIKI KAISHA, priority 2016, published 2025)
Values belong to the molecule of their own block, whether it stands above or below them.

Tests used:
[1] = target: human CD3 (soluble human CD3ε chain) (Homo sapiens, UniProt P07766); experiment: Affinity for human CD3 by surface plasmon resonance (Biacore T200); assay type: binding; settings: for Kd: soluble human CD3ε chain, Table 12
Method: (§1) The activity to bind human CD3 when using hCE115HA (SEQ ID NO: 52) as the H chain variable region and L0000 (SEQ ID NO: 53) as the L-chain variable region was evaluated. This was performed using the molecular form of a single-arm antibody having a single Fab at the Fc region of a human IgG1 heterodimerized by the knobs-into-hole technique.
(§2) The affinity and binding rate constants of an anti-CD3 antibody for an antigen were measured by the single-cycle kinetics method of a surface plasmon resonance assay using Biacore™-T200 (GE Healthcare Japan). HBS-EP+(GE Healthcare Japan) was used for the running buffer, and an amine coupling kit (GE Healthcare Japan) was used to covalently bind human CD3 to the CM4 chip (carboxymethyl dextran-coated chip). The anti-CD3 antibody used as the analyte was prepared at 5 and […] using HBS-EP+. Measurements were carried out by first injecting each of the 5- and 20-g/mL anti-CD3 antibody solutions for three minutes continuously at a flow rate of 20 L/min to allow reaction to take place. Then, the solution was switched to HBS-EP+ and the dissociation phase was measured for 3 minutes. After completion of the dissociation phase measurement, the sensor chip was regenerated by washing with 10 mM Gly-HCl at pH 1.5. Measurement at the concentration of 0 was carried out by performing each of the three-minute HBS-EP+ injections twice successively to allow reaction to take place, and then switching to HBS-EP+ to measure the dissociation phase for 3 minutes. After completion of the dissociation phase measurement, the sensor chip was regenerated by washing with 10 mM Gly-HCl at pH 1.5. A data analysis software exclusively for Biacore, Biacore T200 Evaluation Software Version 1.0, was used to perform kinetic analyses to calculate the binding rate constant (ka), dissociation rate constant (kd), and the rate constant ratio from the obtained sensorgrams.
(§3) CDR and FR were determined according to the Kabat definition (Kabat numbering).
First, point mutations were introduced into FR1, FR2, FR3, CDR1, CDR2, and CDR3 of the humanized anti-human CD3ε chain antibody sequence produced in Reference Example 2, hCE115HA-ERY27_HE (SEQ ID NO: 55), to prepare modified antibodies. Next, the affinity of these modified antibodies for the soluble human CD3ε chain was determined.

[2] = target: T1, soluble human CD3 epsilon chain (human, UniProt P07766 23-126); experiment: SPR, human CD3 on the chip
T1 construct: also called CD3ε
Method: as §1, §2

human GPC3 = human GPC3 (Homo sapiens, UniProt P51654); experiment: Affinity for human GPC3 by surface plasmon resonance (Biacore T200); assay type: binding; settings: single-arm antibody; multi-cycle kinetics
Method: The activity to bind human GPC3 when using GL4 (SEQ ID NO: 41) and L0000 (SEQ ID NO: 53) as the L-chain variable regions was evaluated. This was performed using the molecular form of a single-arm antibody having a single Fab at the Fc region of a human IgG1 heterodimerized by the knobs-into-hole technique. H0000 (SEQ ID NO: 40) was used for the anti-GPC3 antibody H-chain variable region.
The affinity and binding rate constants of an anti-GPC3 antibody for an antigen were measured by the multi-cycle kinetics method of a surface plasmon resonance assay using Biacore™-T200 (GE Healthcare Japan). HBS-EP+(GE Healthcare Japan) was used for the running buffer, and an amine coupling kit (GE Healthcare Japan) was used to covalently bind Protein A/G to the CM5 chip (carboxymethyl dextran-coated chip). Each anti-GPC3 antibody was prepared so that approximately 100 RU will be captured by Protein A/G. Human GPC3 used as the analyte was prepared at 8, 16, 32, 64, and 128 nM using HBS-EP+. Measurements were carried out by first allowing Protein A/G to capture the antibody solution, and then injecting the human GPC3 solution at a flow rate of […] for three minutes to allow reaction to take place. Then, the solution was switched to HBS-EP+ and the dissociation phase was measured for 15 minutes. After completion of the dissociation phase measurement, the sensor chip was regenerated by washing with 10 mM Gly-HCl at pH 1.5. Measurement at the concentration of 0 was similarly carried out by allowing Protein A/G to capture the antibody solution, performing a three-minute HBS-EP+ injection to allow reaction to take place, and then switching to HBS-EP+ to measure the dissociation phase for 15 minutes. […]
as §3
First, point mutations were introduced into CDR1, CDR2, and CDR3 of the anti-human GPC3 bispecific antibody sequence produced in Reference Example 2, H0000-ERY27_HK (SEQ ID NO: 54), to prepare modified antibodies. Next, the affinity of these modified antibodies for soluble human GPC3 was determined.

[3] = single-arm antibody, single-cycle kinetics

Chain of human CD3 (soluble human CD3ε chain) (P07766 23-126 limits assumed): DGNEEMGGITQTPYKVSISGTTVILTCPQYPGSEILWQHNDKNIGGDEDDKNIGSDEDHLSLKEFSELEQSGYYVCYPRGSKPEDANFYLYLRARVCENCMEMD
T1 sequence (P07766 23-126 limits assumed): as above
Chain of human GPC3 (P51654 25-563 limits assumed): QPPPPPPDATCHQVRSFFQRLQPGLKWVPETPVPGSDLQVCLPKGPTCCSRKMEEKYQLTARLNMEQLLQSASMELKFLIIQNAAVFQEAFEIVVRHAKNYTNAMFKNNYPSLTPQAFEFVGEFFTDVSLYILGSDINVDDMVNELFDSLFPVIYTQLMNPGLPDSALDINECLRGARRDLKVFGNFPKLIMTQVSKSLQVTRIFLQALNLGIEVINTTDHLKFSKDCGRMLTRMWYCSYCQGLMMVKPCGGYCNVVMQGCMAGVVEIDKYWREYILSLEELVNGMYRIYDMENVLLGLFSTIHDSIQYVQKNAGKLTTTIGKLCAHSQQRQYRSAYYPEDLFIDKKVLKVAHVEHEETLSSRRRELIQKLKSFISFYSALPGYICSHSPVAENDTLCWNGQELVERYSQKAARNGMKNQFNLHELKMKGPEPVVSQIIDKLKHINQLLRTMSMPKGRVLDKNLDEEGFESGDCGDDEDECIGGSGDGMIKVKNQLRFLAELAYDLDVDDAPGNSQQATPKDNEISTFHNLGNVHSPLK

- Affinity for human CD3 ka [1, 3]: 59000 M⁻¹ s⁻¹
- Affinity for human CD3 kd [1, 3]: 0.006 s⁻¹
- Kd [2]: 100 nM
- koff [2]: 0.006 s⁻¹
- kon [2]: 59000 M⁻¹ s⁻¹
B1: rCE115H/rCE115L single-arm antibody (antibody, human IgG1, V domains shown)
VH: EVQLVETGGSLVQPGKSLKLTCATSGFTFSNAWMHWVRQSPEKQLEWVAQIKAKSNNYATYYAESVKGRFTISRDDSKSNIYLQMNSLKEEDTAVYYCRYVHYGAYYGVDAWGQGTSVTVSS
VL: DVVMTQTPVSMSVSLGGQVSISCRSSQSLVHNNGNTYVSWYIQKPSQSPQLLIYKVSNRFSGISDRFSGSGSGTDFTLKISRVEPDDLGVYYCGQGTQDPYTFGAGTKLELK
notes: single Fab on human IgG1 Fc heterodimerized by knobs-into-hole; also called rCE116H/rCE115L

- Kd [1]: 16.9 nM
B3: antibody-6: anti-human CD3ε chain and anti-human GPC3 bispecific antibody (antibody)
heavy: QVQLVESGGGVVQPGRSLRLSCAASGFTFSNAWMHWVRQAPGKGLEWVANIKAKSNNYATYYAESVKGRFTISRDDSKNSLYLQMNSLKTEDTAVYYCRYVHYGAYYGVDAWGQGTTVTVSSASTKGPSVFPLAPSSKSTSGGTAALGCLVKDYFPEPVTVSWNSGALTSGVHTFPAVLQSSGLYSLSSVVTVPSSSLGTQTYICNVNHKPSNTKVDKKVEPKSCDKTHTCPPCPAPEAAGGPSVFLFPPKPKDTLMISRTPEVTCVVVDVSHEDPEVKFNWYVDGVEVHNAKTKPREEQYASTYRVVSVLTVLHQDWLNGKEYKCKVSNKALPAPIEKTISKAKGQPREPQVYTLPPSRCELTKNQVSLSCAVKGFYPSDIAVEWESNGQPENNYKTTPPVLDSDGSFFLVSKLTVDKSRWQQGNVFSCSVMHEALHNHYTQKSLSLSPDYKDDDDK
light: DIVMTQSPLSLPVTPGEPASISCRSSQSLVHSNRNTYLHWYQQKPGQAPRLLIYKVSNRFSGVPDRFSGSGSGTDFTLKISRVEAEDVGVYYCGQGTQVPYTFGQGTKLEIKRTVAAPSVFIFPPSDEQLKSGTASVVCLLNNFYPREAKVQWKVDNALQSGNSQESVTEQDSKDSTYSLSSTLTLSKADYEKHKVYACEVTHQGLSSPVTKSFNRGEC
chain 1: DIVMTQSPLSLPVTPGEPASISCRSSQSLVHSNRNTYLHWYQQKPGQAPRLLIYKVSNRFSGVPDRFSGSGSGTDFTLKISRVEAEDVGVYYCSQNTHVPPTFGQGTKLEIKSSASTKGPSVFPLAPSSKSTSGGTAALGCLVKDYFPEPVTVSWNSGALTSGVHTFPAVLQSSGLYSLSSVVTVPSSSLGTQTYICNVNHKPSNTKVDKKVEPKSCDKTHTCPPCPAPEAAGGPSVFLFPPKPKDTLMISRTPEVTCVVVDVSHEDPEVKFNWYVDGVEVHNAKTKPREEQYASTYRVVSVLTVLHQDWLNGKEYKCKVSNKALPAPIEKTISKAKGQPREPQVCTLPPSRDELTKNQVSLWCLVKGFYPSDIAVEWESNGQPENNYKTTPPVLDSDGSFFLYSKLTVDKSRWQQGNVFSCSVMHEALHNHYTQKSLSLSPHHHHHHHH
chain 2: QVQLVQSGAEVKKPGASVKVSCKASGYTFTDYEMHWIRQPPGQGLEWIGAIDPKTGDTAYSQKFKGRVTLTADKSTSTAYMELSSLTSEDTAVYYCTRFYSYTYWGQGTLVTVSSASVAAPSVFIFPPSDEQLKSGTASVVCLLNNFYPREAKVQWKVDNALQSGNSQESVTEQDSKDSTYSLSSTLTLSKADYEKHKVYACEVTHQGLSSPVTKSFNRGEC

Second part, the molecule before the results:

B2: CE115HA122-E22Hh//-Hi-Kn010G3/L0000-k0: modified anti-CD3 antibody (antibody)
heavy: QVQLVESGGGVVQPGRSLRLSCAASGFTFSNAWMHWVRQAPGKGLEWVANIKAKSNNYATYYAESVKGRFTISRDDSKNSLYLQMNSLKTEDTAVYYCRYVHYGAYYGVDAWGQGTTVTVSSASTKGPSVFPLAPSSKSTSGGTAALGCLVKDYFPEPVTVSWNSGALTSGVHTFPAVLQSSGLYSLSSVVTVPSSSLGTQTYICNVNHKPSNTKVDKKVEPKSCDKTHTCPPCPAPEAAGGPSVFLFPPKPKDTLMISRTPEVTCVVVDVSHEDPEVKFNWYVDGVEVHNAKTKPREEQYASTYRVVSVLTVLHQDWLNGKEYKCKVSNKALPAPIEKTISKAKGQPREPQVYTLPPSRCELTKNQVSLSCAVKGFYPSDIAVEWESNGQPENNYKTTPPVLDSDGSFFLVSKLTVDKSRWQQGNVFSCSVMHEALHNHYTQKSLSLSPDYKDDDDK
light: DIVMTQSPLSLPVTPGEPASISCRSSQSLVHSNRNTYLHWYQQKPGQAPRLLIYKVSNRFSGVPDRFSGSGSGTDFTLKISRVEAEDVGVYYCGQGTQVPYTFGQGTKLEIKRTVAAPSVFIFPPSDEQLKSGTASVVCLLNNFYPREAKVQWKVDNALQSGNSQESVTEQDSKDSTYSLSSTLTLSKADYEKHKVYACEVTHQGLSSPVTKSFNRGEC
- Kd [1]: 42.8 nM

B4: H0000/GL4: single-arm anti-GPC3 antibody, H0000 (SEQ ID NO: 40) with GL4 (SEQ ID NO: 41) (antibody, V domains shown)
VH: QVQLVQSGAEVKKPGASVKVSCKASGYTFTDYEMHWIRQPPGQGLEWIGAIDPKTGDTAYSQKFKGRVTLTADKSTSTAYMELSSLTSEDTAVYYCTRFYSYTYWGQGTLVTVSS
VL: DIVMTQSPLSLPVTPGEPASISCRSSQSLVHSNRNTYLHWYQQKPGQAPRLLIYKVSNRFSGVPDRFSGSGSGTDFTLKISRVEAEDVGVYYCSQNTHVPPTFGQGTKLEIK
modifications: An artificially generated sequence
- Affinity for human GPC3 ka (human GPC3): 430000 M⁻¹ s⁻¹
- Affinity for human GPC3 kd (human GPC3): 0.0018 s⁻¹
